This is an account of results in patent publication US20240209076A1 (KODIAK SCIENCES, published 2024).

The term Kd denotes the concentration at which binding is half-saturated. A low value points to a tighter complex. By koff is commonly meant a measure of how fast the partners let go of each other. A word on the kon: it is the rate constant with which the complex forms. A higher kon goes with faster complex formation.

Experiment [1] deals with T1, VEGF-A165 (UniProt P15692-4 27-191).
T1 construct: analyte of the Biacore assays
T1 sequence (P15692 other isoform, or with tags, fused parts or gaps limits assumed): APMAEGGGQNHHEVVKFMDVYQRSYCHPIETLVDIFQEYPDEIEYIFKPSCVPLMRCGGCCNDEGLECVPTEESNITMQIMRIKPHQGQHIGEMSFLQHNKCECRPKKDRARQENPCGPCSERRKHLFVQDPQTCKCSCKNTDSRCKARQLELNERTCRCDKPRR
The experiment is described as follows: SPR (Biacore T200), 37 C, binder captured on a Protein A chip, VEGF-A165 0.19 to 15 nM flowed over, 1:1 Langmuir fit. In general terms: In SPR one partner is held on a chip, and binding of the other changes the refractive index at the surface.

For the next experiment, the target named is recombinant human IL-6 (human, UniProt P05231 30-212). Put plainly: SPR, antibody captured on Protein A, 37 C. As for the experimental part:
Antibodies were captured on a Protein A chip (GE) by injecting 1:20 cell supernatant dilutions at 10 μL/min for 60 seconds. […] The sensor chip was regenerated by a 60 seconds injection of 10 mM Glycine pH 1.7 at the flow rate of 50 μL/min. […] For this setup, 1 μg/mL of purified antibody was injected over a Protein A chip at 10 μL/min for 25 seconds. […] The sensor chip was regenerated by a 60 seconds injection of 10 mM Glycine pH 1.7 at flow rate of 50 μL/min. Data analysis for supernatant and purified samples were performed using BIAevaluation software (GE). All sensorgrams were double reference subtracted and fit using a 1:1 Langmuir binding model.

For experiment [2], the target named is VEGF (UniProt P15692-4 27-191, limits assumed). Put plainly: cell-based or functional assay.
Target sequence in this assay (P15692 other isoform, or with tags, fused parts or gaps limits assumed): as above
For experiment [3], the target named is T1, VEGF-A165. Put plainly: Biacore T200 SPR at 37 C, binder captured on Protein A chip, VEGF-A165 0.19 to 15 nM in five steps, 60 min dissociation, 1:1 Langmuir fit. As for the experimental part:
FIGS. 14A-14F illustrate the results for a series of Biacore assays used to determine the affinity between Anti-VEGF agents and VEGF. Binding kinetics between molecules were measured using a Biacore T200 (GE Healthcare) at 37° C. in buffer HBS-EP+ containing 1 mg/mL BSA. […] The sensor chip surface was regenerated by 60 seconds injection of 10 mM Glycine, pH 1.7 at a flow rate of 50 μl/min. All sensorgrams were double reference subtracted and fit using a 1:1 Langmuir binding model.

The target of experiment [4] is T2, VEGF (UniProt P15692-4 27-191, limits assumed).
T2 construct: also called VEGF-A
Put plainly: KinExA 3200, in solution, 37 C.
T2 sequence (P15692 other isoform, or with tags, fused parts or gaps limits assumed): as above

In experiment [5] the target is T3, human IL-6 (human, UniProt P05231 30-212). Put plainly: KinExA 3200, in solution, 37 C. A general note: Kinetic exclusion samples the free partner from a solution-phase mixture.
T3 sequence (P05231 30-212 limits assumed): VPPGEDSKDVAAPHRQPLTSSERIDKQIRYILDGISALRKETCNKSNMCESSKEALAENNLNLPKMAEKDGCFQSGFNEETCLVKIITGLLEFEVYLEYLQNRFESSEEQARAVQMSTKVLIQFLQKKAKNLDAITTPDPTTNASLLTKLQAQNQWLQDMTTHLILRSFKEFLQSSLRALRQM
For experiment [6], the target named is T2, VEGF. Put plainly: KinExA 3200, kinetic measurement, 37 C.
Experiment [7] deals with T3, human IL-6. The experiment is described as follows: KinExA 3200, kinetic measurement, 37 C.
Experiment [8] has as its target T2, VEGF. Put plainly: KinExA 3200, calculated as Kd x kon, 37 C.
Experiment [9] concerns the target T3, human IL-6. The experiment is described as follows: KinExA 3200, calculated as Kd x kon, 37 C.

Chain of recombinant human IL-6 (P05231 30-212 limits assumed): as above

B1: VEGFR-Fc (VEGF trap Fc fusion, sequence 6A) (Fc fusion)
chain: SDTGRPFVEMYSEIPEIIHMTEGRELVIPCRVTSPNITVTLKKFPLDTLIPDGKRIIWDSRKGFIISNATYKEIGLLTCEATVNGHLYKTNYLTHRQTNTIIDVVLSPSHGIELSVGEKLVLNCTARTELNVGIDFNWEYPSSKHQHKKLVNRDLKTQSGSEMKKFLSTLTIDGVTRSDQGLYTCAASSGLMTKKNSTFVRVHEKDKTHTCPPCPAPEAAGAPSVFLFPPKPKDTLMISRTPEVTCVVVDVSHEDPEVKFNWYVDGVEVHNAKTKPREEQYNSTYRVVSVLTVLHQDWLNGKEYKCKVSNKALPAPIEKTISKAKGQPREPQVYTLPPSREEMTKNQVSLTCLVKGFYPSDIAVEWESNGQPENNYKTTPPVLDSDGSFFLYSKLTVDKSRWQQGNVFSCSVMHEALHNHYTQKSLSCSPGK
notes: VEGF trap with engineered IgG1 Fc (L234A, L235A, G237A, L443C); also called VEGFR-Trap Fc fusion
On to B1, for which, in the experiment with VEGF-A165 [1], binding was put at a Kd of 0.0102 nM, the koff came to 9.29e-05 s⁻¹ and the kon was determined as 9.14e+06 M⁻¹ s⁻¹.

B2: anti-IL-6 antibody, heavy chain S35H G66D, light chain M32L/M50D/N52S/M88Q (antibody, human IgG1, V domains shown)
VH: EVQLVESGGGLVQPGGSLRLSCAASGFTFSPFAMHWVRQAPGKGLEWVAKISPGGSWTYYSDTVTDRFTFSLDTSKSTAYLQMNSLRAEDTAVYYCARQLWGYYALDIWGQGTLVTVSS
VL: DIQLTQSPSSLSASVGDRVTITCSASISVSYLYWYQQKPGKAPKLLIYDDSSLASGVPSRFSGSGSGTDFTLTISSLQPEDFATYYCQQWSGYPYTFGQGTKVEIK
notes: see m23; engineered human IgG1; also called S35H G66D double mutant
In the case of B2, in the experiment with recombinant human IL-6, the “fold increase in affinity” value was roughly 1.3 fold.

B3: anti-IL-6 antibody, heavy chain S35H G66D, light chain wild-type (antibody, human IgG1, V domains shown)
VH: EVQLVESGGGLVQPGGSLRLSCAASGFTFSPFAMHWVRQAPGKGLEWVAKISPGGSWTYYSDTVTDRFTFSLDTSKSTAYLQMNSLRAEDTAVYYCARQLWGYYALDIWGQGTLVTVSS
VL: DIQLTQSPSSLSASVGDRVTITCSASISVSYMYWYQQKPGKAPKLLIYDMSNLASGVPSRFSGSGSGTDFTLTISSLQPEDFATYYCMQWSGYPYTFGQGTKVEIK
notes: as for B2
On to B3, for which the “fold increase in affinity” value with recombinant human IL-6 is roughly 2 fold.

B4: VEGFR-Anti-IL-6 (sequences 1A-2A-3H, light chain 4A) (other)
heavy: SDTGRPFVEMYSEIPEIIHMTEGRELVIPCRVTSPNITVTLKKFPLDTLIPDGKRIIWDSRKGFIISNATYKEIGLLTCEATVNGHLYKTNYLTHRQTNTIIDVVLSPSHGIELSVGEKLVLNCTARTELNVGIDFNWEYPSSKHQHKKLVNRDLKTQSGSEMKKFLSTLTIDGVTRSDQGLYTCAASSGLMTKKNSTFVRVHEKGGGGSGGGGSEVQLVESGGGLVQPGGSLRLSCAASGFTFSPFAISWVRQAPGKGLEWVAKISPGGSWTYYSDTVTDRFTFSLDTSKSTAYLQMNSLRAEDTAVYYCARQLWGYYALDVWGQGTLVTVSSASTKGPSVFPLAPSSKSTSGGTAALGCLVKDYFPEPVTVSWNSGALTSGVHTFPAVLQSSGLYSLSSVVTVPSSSLGTQTYICNVNHKPSNTKVDKKVEPKSCDKTHTCPPCPAPEAAGAPSVFLFPPKPKDTLMISRTPEVTCVVVDVSHEDPEVKFNWYVDGVEVHNAKTKPREEQYNSTYRVVSVLTVLHQDWLNGKEYKCKVSNKALPAPIEKTISKAKGQPREPQVYTLPPSREEMTKNQVSLTCLVKGFYPSDIAVEWESNGQPENNYKTTPPVLDSDGSFFLYSKLTVDKSRWQQGNVFSCSVMHEALHNHYTQKSLSCSPGK
light: DIQLTQSPSSLSASVGDRVTITCSASISVSYLYWYQQKPGKAPKLLIYDDSSLASGVPSRFSGSGSGTDFTLTISSLQPEDFATYYCQQWSGYPYTFGQGTKVEIKRTVAAPSVFIFPPSDEQLKSGTASVVCLLNNFYPREAKVQWKVDNALQSGNSQESVTEQDSKDSTYSLSSTLTLSKADYEKHKVYACEVTHQGLSSPVTKSFNRGEC
notes: linker 2A is the double Gly-Gly-Gly-Gly-Ser repeat
Consider B4, for which the “cell-based VEGF stimulated VEGFR reporter assay (KDR/VEGF HEK293, luminescence), IC50” value with VEGF [2] stood at 0.18 nM. In the experiment with VEGF-A165 [3], this molecule came in with a Kd of 7.98 pM, a koff of 0.000603 s⁻¹ and a kon of 7.55e+07 M⁻¹ s⁻¹.

B5: VEGFR-AntiIL6-OG1802 (other)
heavy: SDTGRPFVEMYSEIPEIIHMTEGRELVIPCRVTSPNITVTLKKFPLDTLIPDGKRIIWDSRKGFIISNATYKEIGLLTCEATVNGHLYKTNYLTHRQTNTIIDVVLSPSHGIELSVGEKLVLNCTARTELNVGIDFNWEYPSSKHQHKKLVNRDLKTQSGSEMKKFLSTLTIDGVTRSDQGLYTCAASSGLMTKKNSTFVRVHEKGGGGSGGGGSEVQLVESGGGLVQPGGSLRLSCAASGFTFSPFAMHWVRQAPGKGLEWVAKISPGGSWTYYSDTVTDRFTFSLDTSKSTAYLQMNSLRAEDTAVYYCARQAWGYYALDIWGQGTLVTVSSASTKGPSVFPLAPSSKSTSGGTAALGCLVKDYFPEPVTVSWNSGALTSGVHTFPAVLQSSGLYSLSSVVTVPSSSLGTQTYICNVNHKPSNTKVDKKVEPKSCDKTHTCPPCPAPEAAGAPSVFLFPPKPKDTLMISRTPEVTCVVVDVSHEDPEVKFNWYVDGVEVHNAKTKPREEQYNSTYRVVSVLTVLHQDWLNGKEYKCKVSNKALPAPIEKTISKAKGQPREPQVYTLPPSREEMTKNQVSLTCLVKGFYPSDIAVEWESNGQPENNYKTTPPVLDSDGSFFLYSKLTVDKSRWQQGNVFSCSVMHEALHNHYTQKSLSCSPGK
light: DIQLTQSPSSLSASVGDRVTITCSASISVSYLYWYQQKPGKAPKLLIYDDSSLASGVPSRFSGSGSGTDFTLTISSLQPEDFATYYCQQWSGYPYTFGQGTKVEIKRTVAAPSVFIFPPSDEQLKSGTASVVCLLNNFYPREAKVQWKVDNALQSGNSQESVTEQDSKDSTYSLSSTLTLSKADYEKHKVYACEVTHQGLSSPVTKSFNRGEC
modifications: OG1802 phosphorylcholine biopolymer (about 794 kDa) on Cys L443C (EU numbering; 660C in SEQ ID NO: 170) by maleimide; one polymer per molecule
notes: Polymer conjugate of m3; also called VEGFR-AntiIL6 bioconjugate
On to B5, for which the Kd with VEGF [4] came out at 1.02 pM; in the experiment with human IL-6 [5], 0.0121 nM. Moreover, the kon in the experiment with VEGF [6] turned out to be 3.75e+06 M⁻¹ s⁻¹; with human IL-6 [7] it was 8e+06 M⁻¹ s⁻¹. The koff in the experiment with VEGF [8] is 3.83e-06 s⁻¹; with human IL-6 [9], 9.66e-05 s⁻¹.

B6: VEGFR-AntiIL6 (other)
heavy: SDTGRPFVEMYSEIPEIIHMTEGRELVIPCRVTSPNITVTLKKFPLDTLIPDGKRIIWDSRKGFIISNATYKEIGLLTCEATVNGHLYKTNYLTHRQTNTIIDVVLSPSHGIELSVGEKLVLNCTARTELNVGIDFNWEYPSSKHQHKKLVNRDLKTQSGSEMKKFLSTLTIDGVTRSDQGLYTCAASSGLMTKKNSTFVRVHEKGGGGSGGGGSEVQLVESGGGLVQPGGSLRLSCAASGFTFSPFAMHWVRQAPGKGLEWVAKISPGGSWTYYSDTVTDRFTFSLDTSKSTAYLQMNSLRAEDTAVYYCARQAWGYYALDIWGQGTLVTVSSASTKGPSVFPLAPSSKSTSGGTAALGCLVKDYFPEPVTVSWNSGALTSGVHTFPAVLQSSGLYSLSSVVTVPSSSLGTQTYICNVNHKPSNTKVDKKVEPKSCDKTHTCPPCPAPEAAGAPSVFLFPPKPKDTLMISRTPEVTCVVVDVSHEDPEVKFNWYVDGVEVHNAKTKPREEQYNSTYRVVSVLTVLHQDWLNGKEYKCKVSNKALPAPIEKTISKAKGQPREPQVYTLPPSREEMTKNQVSLTCLVKGFYPSDIAVEWESNGQPENNYKTTPPVLDSDGSFFLYSKLTVDKSRWQQGNVFSCSVMHEALHNHYTQKSLSCSPGK
light: DIQLTQSPSSLSASVGDRVTITCSASISVSYLYWYQQKPGKAPKLLIYDDSSLASGVPSRFSGSGSGTDFTLTISSLQPEDFATYYCQQWSGYPYTFGQGTKVEIKRTVAAPSVFIFPPSDEQLKSGTASVVCLLNNFYPREAKVQWKVDNALQSGNSQESVTEQDSKDSTYSLSSTLTLSKADYEKHKVYACEVTHQGLSSPVTKSFNRGEC
notes: VEGF trap (VEGFR1 domain 2 - VEGFR2 domain 3) fused by a GS linker to the N-terminus of the anti-IL-6 IgG1 heavy chain; also called VEGF Trap-anti-IL6 antibody fusion
Consider B6, for which the Kd in the experiment with VEGF [4] came to 2.1 pM; with human IL-6 [5], 0.0211 nM. Besides, the kon with VEGF [6] turned out to be 4.04e+07 M⁻¹ s⁻¹; with human IL-6 [7], 1.15e+07 M⁻¹ s⁻¹. Further, the figures for the koff in the experiment with VEGF [8] and in the experiment with human IL-6 [9] were 8.49e-05 s⁻¹ and 0.000242 s⁻¹, respectively.
